B1: Saccharomyces cerevisiae mitochondrial manganese superoxide dismutase (ScMnSOD) (enzyme, UniProt P00447 27-233, looked up)
chain: KVTLPDLKWDFGALEPYISGQINELHYTKHHQTYVNGFNTAVDQFQELSDLLAKEPSPANARKMIAIQQNIKFHGGGFTNHCLFWENLAPESQGGGEPPTGALAKAIDEQFGSLDELIKLTNTKLAGVQGSGWAFIVKNLSNGGKLDVVQTYNQDTVTGPLVPLVAIDAWEHAYYLQYQNKKADYFKAIWNVVNWKEASRRFDAGKI

Experiments:
[1] = molecular target: Candida albicans cytosolic manganese superoxide dismutase (CaMnSODc) (Candida albicans); assay: SEC
[2] = molecular target: Candida albicans cytosolic manganese superoxide dismutase (CaMnSODc) (Candida albicans); assay: crystal structure
[3] = molecular target: Candida albicans cytosolic manganese superoxide dismutase (CaMnSODc) (Candida albicans); assay: crystal structure; remark: listed apart in the source
SEC = molecular target: the molecule itself; assay: SEC

Row | Molecule | stoichiometry N [1] | stoichiometry N [2] | stoichiometry N [3] | stoichiometry N (SEC)
1 | Candida albicans cytosolic manganese superoxide dismutase (CaMnSODc) (enzyme) | 2 | 4 | 2 | –
2 | B1 | – | – | – | 4

— article PMC3268005 (Journal of the American Chemical Society, 2011)
